Reference: paper PMC13170487 (Journal of molecular biology, 2025)

T1: Tax-interacting protein 1 (TIP-1), His10 tag cleaved (UniProt O14907 1-124)
T1 sequence (looked up): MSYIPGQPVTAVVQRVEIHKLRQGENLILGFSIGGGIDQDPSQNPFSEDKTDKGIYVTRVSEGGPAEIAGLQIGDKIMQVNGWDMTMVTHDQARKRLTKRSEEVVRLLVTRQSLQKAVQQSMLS


Legend:
[1] = molecular target: CFTR-associated ligand (CAL) PDZ domain (UniProt Q9HD26-2 276-362); assay: fluorescence polarisation
[2] = molecular target: T1, Tax-interacting protein 1 (TIP-1), …; assay: fluorescence polarisation

Ki [1] [µM] | Ki [2] [µM] | Binder
3.1 | 2.4 | WRFKKANSRWPTSII [BT-iCAL36]
– | > 1000 | ANSRLPTSII [L-iCAL36]
– | 390 | ANSRYPTSII [Y-iCAL36]
